Test results taken from patent US20240384250A1, “FIBROBLAST GROWTH FACTOR 23 MODULATING COMPOUNDS” (THE UAB RESEARCH FOUNDATION, priority 2021, published 2024).

How the values were obtained:
[1] = target: Fc-tagged human FGFR1c ectodomain (human) (UniProt P11362); assay: plate assay: 100 ng FGF23 coated, 400 ng purified sKL-N694Q or wildtype, then 200 ng Fc-FGFR1c (FIG. 25F)
[2] = target: Fc-tagged human FGFR4 ectodomain (human), P22455; assay: SPR: Fc-FGFR4 on the chip, FGF23 with heparin in solution (FIG. 11E); details: remark: other sources report otherwise
[3] = target: Fc-tagged human FGFR4 ectodomain (human), P22455; assay: SPR: Fc-FGFR4 on the chip, FGF23 with sKL (human ectodomain, self-made) in solution (FIG. 11F); details: remark: other sources report otherwise
[4] = target: Fc-tagged human FGFR4 ectodomain (human), P22455; assay: SPR: Fc-FGFR4 on the chip, FGF23 with sKL or heparin in solution; details: remark: other sources report otherwise
[5] = target: Fc-tagged human FGFR4 ectodomain (human), P22455; assay: SPR (BIAcore T200): Fc-FGFR4 amine-coupled to the chip, FGF23 injected at 1000-63 nM, 25 °C; details: remark: other sources report otherwise

Fc-tagged human FGFR4 ectodomain (human), P22455, sequence (P22455 22-369): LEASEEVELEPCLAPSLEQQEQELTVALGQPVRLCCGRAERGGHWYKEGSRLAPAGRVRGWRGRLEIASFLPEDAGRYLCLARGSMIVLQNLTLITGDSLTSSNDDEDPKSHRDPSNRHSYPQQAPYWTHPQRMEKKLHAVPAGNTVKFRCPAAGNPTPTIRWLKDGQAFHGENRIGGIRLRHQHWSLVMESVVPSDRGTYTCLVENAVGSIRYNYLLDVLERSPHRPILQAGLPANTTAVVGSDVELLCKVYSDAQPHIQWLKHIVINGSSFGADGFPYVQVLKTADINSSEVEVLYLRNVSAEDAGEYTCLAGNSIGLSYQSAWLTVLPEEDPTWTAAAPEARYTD
Fc-tagged human FGFR1c ectodomain (human), sequence (P11362 22-376 limits assumed): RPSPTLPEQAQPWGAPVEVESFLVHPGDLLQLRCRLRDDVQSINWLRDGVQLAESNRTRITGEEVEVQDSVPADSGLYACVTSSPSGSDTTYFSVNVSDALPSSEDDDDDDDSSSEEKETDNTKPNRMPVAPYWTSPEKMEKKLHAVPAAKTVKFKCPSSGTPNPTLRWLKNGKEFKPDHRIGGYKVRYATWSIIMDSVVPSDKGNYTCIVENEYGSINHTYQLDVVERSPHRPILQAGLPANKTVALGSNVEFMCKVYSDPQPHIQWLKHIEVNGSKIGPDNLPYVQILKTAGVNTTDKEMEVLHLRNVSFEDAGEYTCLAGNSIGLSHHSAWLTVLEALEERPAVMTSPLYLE

B1: complex of FGF23 and sKL-N694Q (protein, part only; not given: FGF23 and C-terminal FLAG/His tag, not shown: small tags and cut ends)
chain: EPGDGAQTWARFSRPPAPEAAGLFQGTFPDGFLWAVGSAAYQTEGGWQQHGKGASIWDTFTHHPLAPPGDSRNASLPLGAPSPLQPATGDVASDSYNNVFRDTEALRELGVTHYRFSISWARVLPNGSAGVPNREGLRYYRRLLERLRELGVQPVVTLYHWDLPQRLQDAYGGWANRALADHFRDYAELCFRHFGGQVKYWITIDNPYVVAWHGYATGRLAPGIRGSPRLGYLVAHNLLLAHAKVWHLYNTSFRPTQGGQVSIALSSHWINPRRMTDHSIKECQKSLDFVLGWFAKPVFIDGDYPESMKNNLSSILPDFTESEKKFIKGTADFFALCFGPTLSFQLLDPHMKFRQLESPNLRQLLSWIDLEFNHPQIFIVENGWFVSGTTKRDDAKYMYYLKKFIMETLKAIKLDGVDVIGYTAWSLMDGFEWHRGYSIRRGLFYVDFLSQDKMLLPKSSALFYQKLIEKNGFPPLPENQPLEGTFPCDFAWGVVDNYIQVDTTLSQFTDLNVYLWDVHHSKRLIKVDGVVTKKRKSYCVDFAAIQPQIALLQEMHVTHFRFSLDWALILPLGNQSQVNHTILQYYRCMASELVRVNITPVVALWQPMAPNQGLPRLLARQGAWENPYTALAFAEYARLCFQELGHHVKLWITMNEPYTRQMTYSAGHNLLKAHALAWHVYNEKFRHAQNGKISIALQADWIEPACPFSQKDKEVAERVLEFDIGWLAEPIFGSGDYPWVMRDWLNQRNNFLLPYFTEDEKKLIQGTFDFLALSHYTTILVDSEKEDPIKYNDYLEVQEMTDITWLNSPSQVAVVPWGLRKVLNWLKFKYGDLPMYIISNGIDDGLHAEDDQLRVYYMQNYINEALKAHILDGINLCGYFAYSFNDRTAPRFGLYRYAADQFEPKASMKHYRKIIDSNGFPGPETLERFCPEEFTVCTECSFFHTRKS
- fold increase in formation of the trimeric FGF23/FGFR1c/sKL complex against wildtype sKL [1]: 3 fold

B2: human FGF23, Q9GZV9 25-251 (ligand, UniProt Q9GZV9 25-251, looked up)
chain: YPNASPLLGSSWGGLIHLYTATARNSYHLQIHKNGHVDGAPHQTIYSALMIRSEDAGFVVITGVMSRRYLCMDFRGNIFGSHYFDPENCRFQHQTLENGYDVYHSPQYHFLVSLGRAKRAFLPGMNPPPYSQFLSRRNEIPLIHFNTPIPRRHTRSAEDDSERDPLNVLKPRARMTPAPASCSQELPSAEDNSPMASDPLGVVRGGRVNTHAGGTGPEGCRPFAKFI
- fold increase in binding affinity in the presence of heparin [2]: 3 fold
- fold increase in binding affinity in the presence of sKL [3]: 13 fold
- fold, effect of sKL on FGFR4 affinity for FGF23 against that of heparin [4]: 4 to 5 fold
- Kd [5]: 320 nM
- koff [5]: 0.04 s⁻¹
- kon [5]: 120000 M⁻¹ s⁻¹
